Test results published in paper doi:10.1101/2025.01.01.631016, “A tool to dissect heterotypic determinants of homotypic protein phase behavior” (bioRxiv, 2025).

Biological target: T1, Avitag-His-TEV-mEos3.1 (Lobophyllia hemprichii EosFP, …, point mutant)
T1 construct: also called purified mEos3.1; pET-Biotin-His6-mEos3.1; source: E. coli BL21 (DE3), co-expressed with BirA, purified (Ni-NTA, anion exchange)
T1 chain: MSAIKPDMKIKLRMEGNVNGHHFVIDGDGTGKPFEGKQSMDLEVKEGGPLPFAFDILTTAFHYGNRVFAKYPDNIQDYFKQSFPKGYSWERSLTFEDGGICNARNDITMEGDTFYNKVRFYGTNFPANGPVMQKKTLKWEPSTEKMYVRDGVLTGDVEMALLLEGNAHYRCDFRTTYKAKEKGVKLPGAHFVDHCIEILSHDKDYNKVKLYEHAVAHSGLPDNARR
Assay: BLI
Conditions: both partners purified

Kd: 76.8 nM
B1: tag free mEosNb (VHH)
VHH: QVQLQESGGGLVQAGGSLRLSCAASGNISQLVYMGWYRQAPGKERELVAGITHGGITYYADSVKGRFTISRDNAKNTVYLQMNSLKPEDTAVYYCAAFQWRSDDVGYLNLGPLEYWGQGTQVTVSS
notes: also called mEos3Nb; nanobody against mEos3; not shown: Avitag, C-terminal, cleaved; His, C-terminal, cleaved
